These sequences were tested on Escherichia coli TOP10 (assay: shrunken log2 fold change of peptide-encoding DNA abundance (4.5 h post-induction vs induction); higher = less antimicrobial activity (less host growth inhibition)). Conditions: time post-induction: 4.5 h; library: site-saturation at positions 5, 18, 19, 20.
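Also: peptides expressed intracellularly from a pBAD plasmid library in pooled LB shake-flask culture, induced with 0.3% L-arabinose, DNA abundance read by NGS, three biological replicates, DESeq2 with apeglm shrinkage.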

Sequence	shrunken log2 fold change
RRIRPRPPRLPRPRPRPKGQPRP	0.205
RRIRHRPPRLPRPRPRPFHEPRP	-0.2
RRIRNRPPRLPRPRPRPRQIPRP	0.151
RRIRERPPRLPRPRPRPLVRPRP	-0.192
RRIRKRPPRLPRPRPRPGKEPRP	0.266
RRIRWRPPRLPRPRPRPRLGPRP	0.252
RRIRARPPRLPRPRPRPSTQPRP	0.265
RRIRIRPPRLPRPRPRPWFVPRP	-0.578
RRIRYRPPRLPRPRPRPWNIPRP	-0.01
RRIRERPPRLPRPRPRPEMVPRP	-0.0371
RRIRHRPPRLPRPRPRPSAIPRP	-0.00669
RRIRVRPPRLPRPRPRPLSYPRP	-0.18
RRIRPRPPRLPRPRPRPSKVPRP	-0.223
RRIRMRPPRLPRPRPRPDGTPRP	2.88
RRIRPRPPRLPRPRPRPTLSPRP	0.421
RRIRIRPPRLPRPRPRPVNRPRP	-0.195
RRIRVRPPRLPRPRPRPWWIPRP	-0.202
RRIRVRPPRLPRPRPRPRKWPRP	0.474
RRIRPRPPRLPRPRPRPIMMPRP	-0.199
RRIRVRPPRLPRPRPRPGFFPRP	0.0758
RRIRVRPPRLPRPRPRPPDEPRP	0.621
RRIRMRPPRLPRPRPRPHALPRP	-0.541
RRIRARPPRLPRPRPRPYSHPRP	-0.171
RRIRRRPPRLPRPRPRPREFPRP	0.419
RRIRRRPPRLPRPRPRPAQSPRP	0.247

Sequence	shrunken log2 fold change
RRIRIRPPRLPRPRPRPSISPRP	-0.046
RRIRLRPPRLPRPRPRPGTSPRP	-0.0167
RRIRPRPPRLPRPRPRPWAFPRP	0.144
RRIRKRPPRLPRPRPRPMHCPRP	3.88
RRIRRRPPRLPRPRPRPIAPPRP	0.702
RRIRQRPPRLPRPRPRPSPIPRP	-0.0339
RRIRNRPPRLPRPRPRPLHRPRP	-0.249
RRIRTRPPRLPRPRPRPNQTPRP	-0.155
RRIRGRPPRLPRPRPRPSRWPRP	0.489
RRIRERPPRLPRPRPRPLAIPRP	-0.56
RRIRNRPPRLPRPRPRPKHRPRP	0.0319
RRIRDRPPRLPRPRPRPPMQPRP	0.172
RRIRVRPPRLPRPRPRPHERPRP	-0.13
RRIRFRPPRLPRPRPRPSNFPRP	-0.129
RRIRRRPPRLPRPRPRPMIEPRP	0.177
RRIRDRPPRLPRPRPRPQFVPRP	-0.0477
RRIRSRPPRLPRPRPRPPKIPRP	-0.0117
RRIRRRPPRLPRPRPRPKHLPRP	0.0709
RRIRKRPPRLPRPRPRPYCMPRP	-0.461
RRIRIRPPRLPRPRPRPYQSPRP	-0.0409
RRIRLRPPRLPRPRPRPYLCPRP	-0.0953
RRIRARPPRLPRPRPRPDHLPRP	-0.0183
RRIRTRPPRLPRPRPRPCHMPRP	-0.0872
RRIRNRPPRLPRPRPRPHIRPRP	-0.0139
RRIRHRPPRLPRPRPRPDDRPRP	-0.144

Sequence	shrunken log2 fold change
RRIRIRPPRLPRPRPRPKHEPRP	0.0924
RRIRFRPPRLPRPRPRPGMWPRP	0.231
RRIRIRPPRLPRPRPRPTIDPRP	-0.356
RRIRLRPPRLPRPRPRPYGWPRP	-0.265
RRIRWRPPRLPRPRPRPLTDPRP	-0.0316
RRIRTRPPRLPRPRPRPPWIPRP	0.161
RRIRERPPRLPRPRPRPQMRPRP	0.0123
RRIRVRPPRLPRPRPRPFRVPRP	-0.266
RRIRYRPPRLPRPRPRPRLLPRP	-0.0826
RRIRKRPPRLPRPRPRPKWCPRP	0.152
RRIRCRPPRLPRPRPRPRLEPRP	0.299
RRIRVRPPRLPRPRPRPQTIPRP	-0.127
RRIRGRPPRLPRPRPRPTEMPRP	0.814
RRIRIRPPRLPRPRPRPHEYPRP	0.0332
RRIRCRPPRLPRPRPRPKNNPRP	-0.188
RRIRERPPRLPRPRPRPVKYPRP	-0.0311
RRIRNRPPRLPRPRPRPFKFPRP	-0.423
RRIRFRPPRLPRPRPRPFDDPRP	-0.488
RRIRLRPPRLPRPRPRPQVCPRP	-0.00713
RRIRGRPPRLPRPRPRPWKGPRP	0.22
RRIRWRPPRLPRPRPRPGNAPRP	0.146
RRIRARPPRLPRPRPRPVSFPRP	0.368
RRIRGRPPRLPRPRPRPANGPRP	0.378
RRIRTRPPRLPRPRPRPWCHPRP	-0.732
RRIRRRPPRLPRPRPRPEWVPRP	0.344

Sequence	shrunken log2 fold change
RRIRPRPPRLPRPRPRPMRAPRP	0.788
RRIRNRPPRLPRPRPRPQLLPRP	-0.0811
RRIRDRPPRLPRPRPRPSQIPRP	0.016
RRIRPRPPRLPRPRPRPPPNPRP	0.743
RRIRHRPPRLPRPRPRPAPTPRP	0.294
RRIRCRPPRLPRPRPRPKVRPRP	0.195
RRIRMRPPRLPRPRPRPYFAPRP	-0.296
RRIRERPPRLPRPRPRPGYTPRP	0.0628
RRIRGRPPRLPRPRPRPFHMPRP	-0.0599
RRIRLRPPRLPRPRPRPLRFPRP	0.477
RRIRHRPPRLPRPRPRPVARPRP	0.227
RRIRARPPRLPRPRPRPVFQPRP	0.000109
RRIRQRPPRLPRPRPRPQFWPRP	0.681
RRIRCRPPRLPRPRPRPNVLPRP	-0.464
RRIRLRPPRLPRPRPRPNHAPRP	-0.0276
RRIRCRPPRLPRPRPRPMKAPRP	-0.173
RRIRDRPPRLPRPRPRPMPCPRP	0.000981
RRIRTRPPRLPRPRPRPIMFPRP	-0.937
RRIRMRPPRLPRPRPRPENGPRP	0.0676
RRIRLRPPRLPRPRPRPENTPRP	-0.235
RRIRDRPPRLPRPRPRPIIEPRP	0.479
RRIRGRPPRLPRPRPRPPDDPRP	1.34
RRIRYRPPRLPRPRPRPLQGPRP	-0.0139
RRIRRRPPRLPRPRPRPPMWPRP	0.548
RRIRIRPPRLPRPRPRPQIMPRP	-1.16

Sequence	shrunken log2 fold change
RRIRDRPPRLPRPRPRPQKTPRP	-0.253
RRIRVRPPRLPRPRPRPDSVPRP	-0.28
RRIRDRPPRLPRPRPRPRPDPRP	0.379
RRIRVRPPRLPRPRPRPWQHPRP	0.0882
RRIRRRPPRLPRPRPRPHELPRP	0.429
RRIRNRPPRLPRPRPRPFWRPRP	-0.0018
RRIRPRPPRLPRPRPRPTNSPRP	-0.195
RRIRYRPPRLPRPRPRPGPTPRP	-0.0479
RRIRYRPPRLPRPRPRPTTHPRP	-0.647
RRIRGRPPRLPRPRPRPCERPRP	0.013
RRIRYRPPRLPRPRPRPDLYPRP	-0.0604
RRIRVRPPRLPRPRPRPQDHPRP	-0.253
RRIRARPPRLPRPRPRPSIDPRP	-0.0466
RRIRRRPPRLPRPRPRPKMSPRP	0.274
RRIRPRPPRLPRPRPRPPMTPRP	0.0831
RRIRPRPPRLPRPRPRPSSGPRP	-0.494
RRIRVRPPRLPRPRPRPITLPRP	1.44
RRIRNRPPRLPRPRPRPSVVPRP	-0.0462
RRIRVRPPRLPRPRPRPFMQPRP	-0.285
RRIRCRPPRLPRPRPRPDRQPRP	0.00868
RRIRKRPPRLPRPRPRPSRVPRP	0.24
RRIRKRPPRLPRPRPRPGLEPRP	1.18
RRIRARPPRLPRPRPRPTGFPRP	0.105
RRIRCRPPRLPRPRPRPVMNPRP	-0.0483
RRIRLRPPRLPRPRPRPHMCPRP	-0.165

Sequence	shrunken log2 fold change
RRIRARPPRLPRPRPRPYTDPRP	-0.785
RRIRRRPPRLPRPRPRPRMQPRP	0.372
RRIRMRPPRLPRPRPRPGFEPRP	0.526
RRIRCRPPRLPRPRPRPSLMPRP	-0.287
RRIRERPPRLPRPRPRPRQMPRP	-0.000582
RRIRYRPPRLPRPRPRPTTCPRP	-0.923
RRIRDRPPRLPRPRPRPYLVPRP	-0.506
RRIRDRPPRLPRPRPRPWCIPRP	-0.383
RRIRMRPPRLPRPRPRPGEEPRP	3.02
RRIRSRPPRLPRPRPRPATPPRP	0.373
RRIRNRPPRLPRPRPRPSCWPRP	0.0544
RRIRSRPPRLPRPRPRPTKPPRP	0.196
RRIRCRPPRLPRPRPRPQEVPRP	0.144
RRIRSRPPRLPRPRPRPSFHPRP	-0.542
RRIRGRPPRLPRPRPRPFCPPRP	-0.0253
RRIRERPPRLPRPRPRPSSDPRP	-0.164
RRIRQRPPRLPRPRPRPNSLPRP	-0.489
RRIRDRPPRLPRPRPRPFLFPRP	0.212
RRIRGRPPRLPRPRPRPERCPRP	0.203
RRIRVRPPRLPRPRPRPCQLPRP	-0.202
RRIRARPPRLPRPRPRPALYPRP	0.332
RRIRGRPPRLPRPRPRPIYWPRP	0.247
RRIRDRPPRLPRPRPRPVDKPRP	-0.01
RRIRSRPPRLPRPRPRPIDTPRP	-0.117
RRIRFRPPRLPRPRPRPKSRPRP	-0.0938

Reference: the supplement of paper PMC9112550, “Optimization of the antimicrobial peptide Bac7 by deep mutational scanning” (BMC Biology, 2022)
